Test results from patent US20240425589A1, “CYTOTOXICITY-INDUCING THERAPEUTIC AGENT FOR USE IN TREATMENT OF CANCER” (CHUGAI SEIYAKU KABUSHIKI KAISHA, priority 2021, published 2024).

Assays:
[1] = test system: GloResponse NFAT-luc2 Jurkat cells with OVCAR3 and H1435 cells; experiment: NFAT-luc2 Jurkat luciferase assay with chemotherapeutic-treated cancer cells; type: cell-based, human; conditions: cells treated with cisplatin or carboplatin for 5 days vs untreated
Description: Next, measurement was carried out based on a luciferase assay system using GloResponse NFAT-luc2 Jurkat cells (Promega, J1601) to see if T-cell-activation ability of CS4135 antibody via CD3 binding will change depending on the presence or absence of treatment by a chemotherapeutic agent.
The assay was performed as follows. First, as described above, OVCAR3 and H1435 cells treated with a chemotherapeutic agent for 5 days were detached from a culture flask and plated at 25 μL/well (2×10^4 cells) onto a white flat-bottom 96-well plate (Coster #3917). Next, 1×10^5 Jurkat/NFAT-RE reporter cell line together with the CS4135 antibody at a concentration selected from 0.003, 0.03, 0.3, 3, or 30 nM were added at 25 μL/well. After culturing overnight at 37° C., Bio-Glo reagent (Promega #G7941) was added at 75 μL/well followed by further incubation at room temperature for 10 minutes. Then, luminescence arose from activated Jurkat cells was measured using an EnSpire (PerkinElmer Japan) device. The luminescence magnification of each well was calculated by comparing the wells with the antibody to the wells without the antibody.

NIH:OVCAR-3 = experiment: OVCAR3 xenograft in huNOG mice, combination with irinotecan hydrochloride; type: in vivo; conditions: 60 days after transplantation; CS4135 0.1 mg/kg, irinotecan hydrochloride 25 mg/kg, iv days 39, 46
Description: In this test, NOG(huNOG) mice (described in the aforementioned Example 13) transplanted with ovarian cancer cell line NIH:OVCAR-3 (OVCAR3, ATCC) and human CD34-positive cells were used. The OVCAR3 cell line was transplanted subcutaneously to the right flank of the mice, and the mice were divided into groups 39 days after transplantation. Individuals whose tumor volume reached 160 to 263 mm^3 were divided into groups. Vehicle 1 and CS4135 were administered into the mouse tail vein 39 and 46 days after transplantation. PBS containing 0.05% Tween-20 was used as Vehicle 1. Vehicle 2 and irinotecan hydrochloride (Sawai Pharmaceutical Co., Ltd.) were administered into the mouse tail vein 39 and 46 days after transplantation. Physiological saline was used as Vehicle 2.
Tumor volume was measured 39, 42, 46, 49, 53, 57, and 60 days after transplantation, and the average tumor volume is indicated for each group. The tumor volume was calculated by the following equation: […]
(§1) Tumor Growth Inhibition (TGI) was calculated by the following equation: […]

CLDN6-LLC1 [2] = experiment: CLDN6-LLC1 syngenic model, CS4135 single agent; type: in vivo, hCD137 KI/hCD3Tg mice
Description: In this test, lung cancer cell line LLC1 forced to express claudin 6 (CLDN6) (CLDN6-LLC1) and hCD137 KI/hCD3Tg mice (described in the above-mentioned Example 7) were used. The CLDN6-LLC1 cell line was transplanted subcutaneously to the right flank of the mice, and the mice were divided into groups 7 days after transplantation. Individuals whose tumor volume reached 262 to 353 mm^3 were divided into groups. The vehicle and CS4135 were administered into the mouse tail vein 8 days after transplantation. PBS containing 0.05% Tween-20 was used as the vehicle.
Tumor volume was measured 7, 10, and 14 days after transplantation, and the average tumor volume was indicated for each group. The tumor volume was calculated by the following equation: […]
as §1
The resected tumor tissue was weighed, and then a lymphocyte fraction was isolated. The lymphocyte fraction obtained by tissue disruption using a Tumor Dissociation Kit, mouse (Miltenyi Biotec) and then by use of a cell strainer was used. The obtained tumor-derived lymphocyte fraction was subjected to flow cytometry (FCM) analysis.
FCM was used to analyze the number of tumor-derived T cells. The number of CD8-positive T cells per tumor weight was calculated using the tumor weight value and the number of CD8-positive T cells according to FCM. […]

CLDN6-LLC1 [3] = experiment: CLDN6-LLC1 syngenic model, combination with anti-mouse PD-L1 antibody; type: in vivo, hCD137 KI/hCD3Tg mice; conditions: 17 days after transplantation; CS4135 0.2 mg/kg iv day 6, anti-mouse PD-L1 antibody 10 mg/kg ip days 6, 8, 10, 12, 14, 17
Description: In this test, lung cancer cell line LLC1 forced to express claudin 6 (CLDN6) (CLDN6-LLC1) and hCD137 KI/hCD3Tg mice (described in the aforementioned Example 7) were used. The CLDN6-LLC1 cell line was transplanted subcutaneously to the right flank of the mice, and the mice were divided into groups 6 days after transplantation. Individuals whose tumor volume reached 104 to 140 mm^3 were divided into groups. The vehicle and the CS4135 antibody were administered into the mouse tail vein 6 days after transplantation. PBS containing 0.05% Tween-20 was used as the vehicle. The vehicle and anti-mouse PD-L1 antibody (BioX cell) were administered intraperitoneally to the mice 6, 8, 10, 12, 14, and 17 days after transplantation.
Tumor volume was measured 6, 10, 12, 14, and 17 days after transplantation, and the average tumor volume was indicated for each group. The tumor volume was calculated by the following equation: […]
as §1

B1: PPU4135: anti-CLDN6/Dual-Fab tri-specific antibody, chains SEQ ID NOs 42, 51, 56, 69; CS4135 same antibody (protein)
chain 1: QVQLVESGGGVVQPGGSLRLSCAASGFTFSSYTMSWVRQAPGQGLEWMGTISSGGGRTYYPDSVKGRFTISRDNSKNTLYLQMNSLRDEDTAVYYCARGDYRYDGFAYWGEGTLVTVSSASTKGPSVFPLAPSSKSTSGGTAALGCLVEDYFPEPVTVSWNSGALTSGVHTFPAVLESSGLYSLSSVVTVPSSSLGTQTYICNVNHKPSNTKVDKRVEPKSCDKTHTCPPCPAPEAAGGPSVFLFPPKPKDTLMISRTPEVTCVVVDVSHEDPEVKFNWYVDGVEVHNAKTKPREEQYASTYRVVSVLTVLHQDWLNGKEYKCKVSNKALPAPIEKTISKAKGQPREPQVYTLPPSREEMTKNQVSLTCLVKGFYPSDIAVEWESNGQPENNYKTTPPVLDSDGSFFLYSKLTVDKSRWQQGNVFSCSVMHEALHNHYTQESLSLSP
chain 2: DIQMTQSPSSLSASVGDRVTITCRASYNIDSYLAWYQQKPGKAPELLIYYSTLLVDGVPDRFSGSRSGTDFTLTISSLQPEDFATYYCQHYYSIPYTFGQGTKVEIERTVAAPSVFIFPPSDEQLKSGTAKVVCLLNNFYPREAKVQWKVDNALQSGNSKESVTEQDSKDSTYSLSSTLTLSKADYEKHKVYACEVTHQGLSSPVTKSFNRGEC
chain 3: QVQLVESGGGLVQPGRSLRLSCAASGFKFSNVWFHWVRQAPGKGLEWVAQIKDYYNAYAAYYAPSVKGRFTISRDDSKNSIYLQMNSLKTEDTAVYYCHYVHYASASTLLPAEGVDAWGQGTTVTVSSASTKGPSVFPLAPSSKSTSGGTAALGCLVKDYFPEPVTVSWNSGALTSGVHTFPAVLKSSGLYSLSSVVTVPSSSLGTQTYICNVNHKPSNTKVDKRVEPKSCDKTHTCPPCPAPEAAGGPSVFLFPPKPKDTLMISRTPEVTCVVVDVSHEDPEVKFNWYVDGVEVHNAKTKPREEQYASTYRVVSVLTVLHQDWLNGKEYKCKVSNKALPAPIEKTISKAKGQPREPQVYTLPPSRKEMTKNQVSLTCLVKGFYPSDIAVEWESNGQPENNYKTTPPVLDSDGSFFLYSKLTVDKSRWQQGNVFSCSVMHEALHNHYTQKSLSLSP
chain 4: DIVMTQSPLSLPVTPGEPASISCQPSQEVVHMNRNTYLHWYQQKPGQAPRLLIYKVSNRFPGVPDRFSGSGSGTDFTLKISRVEAEDVGVYYCAQGTSHPFTFGQGTKLEIKRTVAAPSVFIFPPSDEQLKSGTAEVVCLLNNFYPREAKVQWKVDNALQSGNSEESVTEQDSKDSTYSLSSTLTLSKADYEKHKVYACEVTHQGLSSPVTKSFNRGEC
[1]
  T cell activation ability via CD3: enhanced
NIH:OVCAR-3
  Tumor growth inhibition: TGI: −2%
CLDN6-LLC1 [2]; 14 days after transplantation, 0.25 mg/kg iv day 8
  Tumor growth inhibition: TGI: 71%
CLDN6-LLC1 [2]; 14 days after tumor transplantation (Day 6 after administration), 0.25 mg/kg
  number of CD8-positive T cells per tumor weight: significant increase
CLDN6-LLC1 [3]
  Tumor growth inhibition: TGI: 71%
